Assay results reported in article PMC5458251.

Target: SEPT9_i1-YN (split-YFP chimera: septin 9 isoform 1 with EE tag, linker and N-terminal YFP fragment on its C-terminus) (human) (UniProt Q9UHD8)
Test: split reporter (BiFC, NanoBiT); split YFP (YN/YC) in live PC-3 cells, transient co-transfection with 10-fold more HIF-1α plasmid than SEPT9_i1 plasmid, confocal imaging 48 h after transfection; cells treated overnight with 250 μM CoCl2, 100 μM DBM, DBM with 1 μM 17-AAG or 150 μM FCF, or 0.01% DMSO

Sequence of UniProt Q9UHD8 (Q9UHD8 whole entry, change not shown, the tested form may be a part, canonical isoform): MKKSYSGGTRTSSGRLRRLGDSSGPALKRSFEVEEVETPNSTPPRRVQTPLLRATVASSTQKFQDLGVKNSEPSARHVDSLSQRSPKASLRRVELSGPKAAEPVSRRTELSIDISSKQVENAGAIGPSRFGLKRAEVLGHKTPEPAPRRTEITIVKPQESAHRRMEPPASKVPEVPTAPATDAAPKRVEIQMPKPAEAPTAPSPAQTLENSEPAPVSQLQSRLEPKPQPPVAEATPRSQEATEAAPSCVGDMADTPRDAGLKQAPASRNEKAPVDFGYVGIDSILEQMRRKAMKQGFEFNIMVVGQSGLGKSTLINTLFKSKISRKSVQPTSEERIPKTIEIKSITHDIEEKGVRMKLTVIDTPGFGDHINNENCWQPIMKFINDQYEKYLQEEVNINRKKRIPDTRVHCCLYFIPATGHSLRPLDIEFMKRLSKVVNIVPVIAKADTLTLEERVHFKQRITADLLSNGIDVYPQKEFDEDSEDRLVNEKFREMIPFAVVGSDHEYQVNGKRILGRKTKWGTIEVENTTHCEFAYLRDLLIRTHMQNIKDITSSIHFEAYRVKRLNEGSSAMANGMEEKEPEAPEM

fold BiFC signal against YC-ΔHLH-HIF-1α with SEPT9 i1-YN: 11 fold
Substance: YC-HIF-1α-DPM (YC chimera of double proline mutated HIF-1α) (from UniProt Q16665 1-826) (natural protein)
